According to the supplement of paper PMC11246515:
± gives the standard deviation of the averaged measurements.

Test: total protein half-life in vivo (active degradation + dilution); higher = more stable protein
[1] = E. coli NCM3722 delta-clpP delta-lon delta-hslV, growth: N-lim chemostat, doubling time 6 h
[2] = E. coli NCM3722 delta-clpP, growth: N-lim chemostat, doubling time 6 h
[3] = wild type E. coli NCM3722, growth: C-lim chemostat, doubling time 3 h
[4] = wild type E. coli NCM3722, growth: C-lim chemostat, doubling time 6 h
[5] = wild type E. coli NCM3722, growth: C-lim chemostat, doubling time 12 h
[6] = wild type E. coli NCM3722, growth: P-lim chemostat, doubling time 12 h
[7] = E. coli NCM3722 delta-hslV, growth: N-lim chemostat, doubling time 6 h
[8] = E. coli NCM3722 delta-lon, growth: N-lim chemostat, doubling time 6 h
[9] = E. coli NCM3722 delta-smpB, growth: N-lim chemostat, doubling time 6 h
[10] = wild type E. coli NCM3722, growth: N-lim chemostat, doubling time 6 h
[11] = wild type E. coli NCM3722, growth: N-lim chemostat, doubling time 12 h
[12] = wild type E. coli NCM3722, growth: P-lim chemostat, doubling time 6 h

Sequence | total protein half-life in vivo [1] | total protein half-life in vivo [2] | total protein half-life in vivo [3] | total protein half-life in vivo [4] | total protein half-life in vivo [5] | total protein half-life in vivo [6] | total protein half-life in vivo [7] | total protein half-life in vivo [8] | total protein half-life in vivo [9] | total protein half-life in vivo [10] | total protein half-life in vivo [11] | total protein half-life in vivo [12]
MANIEIRQETPTAFYIKVHDTDNVAIIVNDNGLKAGTRFPDGLELIEHIPQGHKVALLDIPANGEIIRYGEVIGYAVRAIPRGSWIDESMVVLPEAPPLHTLPLATKVPEPLPPLEGYTFEGYRNADGSVGTKNLLGITTSVHCVAGVVDYVVKIIERDLLPKYPNVDGVVGLNHLYGCGVAINAPAAVVPIRTIHNISLNPNFGGEVMVIGLGCEKLQPERLLTGTDDVQAIPVESASIVSLQDEKHVGFQSMVEDILQIAERHLQKLNQRQRETCPASELVVGMQCGGSDAFSGVTANPAVGYASDLLVRCGATVMFSEVTEVRDAIHLLTPRAVNEEVGKRLLEEMEWYDNYLNMGKTDRSANPSPGNKKGGLANVVEKALGSIAKSGKSAIVEVLSPGQRPTKRGLIYAATPASDFVCGTQQVASGITVQVFTTGRGTPYGLMAVPVIKMATRTELANRWFDLMDINAGTIATGEETIEEVGWKLFHFILDVASGKKKTFSDQWGLHNQLAVFNPAPVT | 4.25 ± 0.3 h | 2.43 h | 2.1 ± 0.18 h | 3.22 ± 0.48 h | 3.39 ± 0.27 h | 3.6 h | – | – | – | – | – | –
MANKPSAEELKKNLSEMQFYVTQNHGTEPPFTGRLLHNKRDGVYHCLICDAPLFHSQTKYDSGCGWPSFYEPVSEESIRYIKDLSHGMQRIEIRCGNCDAHLGHVFPDGPQPTGERYCVNSASLRFTDGENGEEING [P0A746] | – | 3.48 ± 0.34 h | 1.95 ± 0.59 h | 4.02 ± 0.54 h | 5.47 ± 0.75 h | 6.29 ± 0.15 h | 3.1 ± 0.16 h | 3.91 ± 0.56 h | 2.55 ± 0.31 h | 3.22 ± 0.13 h | 4.64 ± 0.16 h | 2.79 ± 0.38 h
MANPLYQKHIISINDLSRDDLNLVLATAAKLKANPQPELLKHKVIASCFFEASTRTRLSFETSMHRLGASVVGFSDSANTSLGKKGETLADTISVISTYVDAIVMRHPQEGAARLATEFSGNVPVLNAGDGSNQHPTQTLLDLFTIQETQGRLDNLHVAMVGDLKYGRTVHSLTQALAKFDGNRFYFIAPDALAMPQYILDMLDEKGIAWSLHSSIEEVMAEVDILYMTRVQKERLDPSEYANVKAQFVLRASDLHNAKANMKVLHPLPRVDEIATDVDKTPHAWYFQQAGNGIFARQALLALVLNRDLVL [P0A786] | 6.1 ± 1.2 h | 4.74 ± 0.28 h | 3.22 ± 0.23 h | 5.83 ± 0.35 h | 10.4 ± 1.8 h | 10.7 ± 0.62 h | 4.54 ± 0.5 h | 4.9 ± 0.09 h | 5.02 ± 0.63 h | 4.75 ± 0.085 h | 8.23 ± 1.4 h | 5.94 ± 0.21 h
MANSITADEIREQFSQAMSAMYQQEVPQYGTLLELVADVNLAVLENNPQLHEKMVNADELARLNVERHGAIRVGTAQELATLRRMFAIMGMYPVSYYDLSQAGVPVHSTAFRPIDDASLARNPFRVFTSLLRLELIENEILRQKAAEILRQRDIFTPRCRQLLEEYEQQGGFNETQAQEFVQEALETFRWHQSATVDEETYRALHNEHRLIADVVCFPGCHINHLTPRTLDIDRVQSMMPECGIEPKILIEGPPRREVPILLRQTSFKALEETVLFAGQKQGTHTARFGEIEQRGVALTPKGRQLYDDLLRNAGTGQDNLTHQMHLQETFRTFPDSEFLMRQQGLAWFRYRLTPSGEAHRQAIHPGDDPQPLIERGWVVAQPITYEDFLPVSAAGIFQSNLGNETQTRSHGNASREAFEQALGCPVLDEFQLYQEAEERSKRRCGLL | 4.93 ± 0.48 h | 4.86 ± 2.3 h | 1.93 ± 0.29 h | 3.5 ± 0.098 h | 5.086 ± 0.02 h | 6.32 ± 0.42 h | 3.34 h | 3.29 ± 0.28 h | 3.09 ± 0.13 h | 3.41 ± 0.23 h | 4.83 ± 0.42 h | 3.15 ± 0.84 h
MANSSSRYSVLTAAHWGPMLVETDGETVFSSRGALATGMENSLQSAVRDQVHSNTRVRFPMVRKGFLASPENPQGIRGQDEFVRVSWDEALDLIHQQHKRIREAYGPASIFAGSYGWRSNGVLHKASTLLQRYMALAGGYTGHLGDYSTGAAQAIMPYVVGGSEVYQQQTSWPLVLEHSDVVVLWSANPLNTLKIAWNASDEQGLSYFSALRDSGKKLICIDPMRSETVDFFGDKMEWVAPHMGTDVALMLGIAHTLVENGWHDEAFLARCTTGYAVFASYLLGESDGIAKTAEWAAEICGVGAAKIRELAAIFHQNTTMLMAGWGMQRQQFGEQKHWMIVTLAAMLGQIGTPGGGFGLSYHFANGGNPTRRSAVLSSMQGSLPGGCDAVDKIPVARIVEALENPGGAYQHNGMNRHFPDIRFIWWAGGANFTHHQDTNRLIRAWQKPELVVISECFWTAAAKHADIVLPATTSFERNDLTMTGDYSNQHLVPMKQVVPPRYEARNDFDVFAELSERWEKGGYARFTEGKSELQWLETFYNVARQRGASQQVELPPFAEFWQANQLIEMPENPDSERFIRFADFCRDPLAHPLKTASGKIEIFSQRIADYGYPDCPGHPMWLEPDEWQGNAEPEQLQVLSAHPAHRLHSQLNYSSLRELYAVANREPVTIHPDDAQERGIQDGDTVRLWNARGQILAGAVISEGIKPGVICIHEGAWPDLDLTADGICKNGAVNVLTKDLPSSRLGNGCAGNTALAWLEKYNGPELTLTAFEPPASS | 4.73 ± 0.25 h | 3.43 ± 0.21 h | 2.4 ± 0.26 h | 4.57 ± 0.6 h | 7.73 ± 0.2 h | 6.319 ± 0.0081 h | 3.62 ± 0.17 h | 4.25 ± 0.41 h | 3.293 ± 0.026 h | 3.56 ± 0.24 h | 5.57 ± 0.67 h | 3.55 ± 0.4 h
MANYFIDRPVFAWVLAIIMMLAGGLAIMNLPVAQYPQIAPPTITVSATYPGADAQTVEDSVTQVIEQNMNGLDGLMYMSSTSDAAGNASITLTFETGTSPDIAQVQVQNKLQLAMPSLPEAVQQQGISVDKSSSNILMVAAFISDNGSLNQYDIADYVASNIKDPLSRTAGVGSVQLFGSEYAMRIWLDPQKLNKYNLVPSDVISQIKVQNNQISGGQLGGMPQAADQQLNASIIVQTRLQTPEEFGKILLKVQQDGSQVLLRDVARVELGAEDYSTVARYNGKPAAGIAIKLAAGANALDTSRAVKEELNRLSAYFPASLKTVYPYDTTPFIEISIQEVFKTLVEAIILVFLVMYLFLQNFRATIIPTIAVPVVILGTFAILSAVGFTINTLTMFGMVLAIGLLVDDAIVVVENVERVIAEDKLPPKEATHKSMGQIQRALVGIAVVLSAVFMPMAFMSGATGEIYRQFSITLISSMLLSVFVAMSLTPALCATILKAAPEGGHKPNALFARFNTLFEKSTQHYTDSTRSLLRCTGRYMVVYLLICAGMAVLFLRTPTSFLPEEDQGVFMTTAQLPSGATMVNTTKVLQQVTDYYLTKEKDNVQSVFTVGGFGFSGQGQNNGLAFISLKPWSERVGEENSVTAIIQRAMIALSSINKAVVFPFNLPAVAELGTASGFDMELLDNGNLGHEKLTQARNELLSLAAQSPNQVTGVRPNGLEDTPMFKVNVNAAKAEAMGVALSDINQTISTAFGSSYVNDFLNQGRVKKVYVQAGTPFRMLPDNINQWYVRNASGTMAPLSAYSSTEWTYGSPRLERYNGIPSMEILGEAAAGKSTGDAMKFMADLVAKLPAGVGYSWTGLSYQEALSSNQAPALYAISLVVVFLALAALYESWSIPFSVMLVVPLGVVGALLATDLRGLSNDVYFQVGLLTTIGLSAKNAILIVEFAVEMMQKEGKTPIEAIIEAARMRLRPILMTSLAFILGVLPLVISHGAGSGAQNAVGTGVMGGMFAATVLAIYFVPVFFVVVEHLFARFKKA | 6.822 ± 0.011 h | – | – | – | – | 12.5 ± 1.6 h | 5.41 ± 0.53 h | 5.03 ± 0.059 h | – | 5.55 h | 12.5 ± 3.7 h | 5.7 ± 0.79 h
MANYFNTLNLRQQLAQLGKCRFMGRDEFADGASYLQGKKVVIVGCGAQGLNQGLNMRDSGLDISYALRKEAIAEKRASWRKATENGFKVGTYEELIPQADLVINLTPDKQHSDVVRTVQPLMKDGAALGYSHGFNIVEVGEQIRKDITVVMVAPKCPGTEVREEYKRGFGVPTLIAVHPENDPKGEGMAIAKAWAAATGGHRAGVLESSFVAEVKSDLMGEQTILCGMLQAGSLLCFDKLVEEGTDPAYAEKLIQFGWETITEALKQGGITLMMDRLSNPAKLRAYALSEQLKEIMAPLFQKHMDDIISGEFSSGMMADWANDDKKLLTWREETGKTAFETAPQYEGKIGEQEYFDKGVLMIAMVKAGVELAFETMVDSGIIEESAYYESLHELPLIANTIARKRLYEMNVVISDTAEYGNYLFSYACVPLLKPFMAELQPGDLGKAIPEGAVDNGQLRDVNEAIRSHAIEQVGKKLRGYMTDMKRIAVAG | 3.97 ± 0.51 h | 3.59 ± 0.64 h | 3.035 ± 0.013 h | 5.6 ± 0.11 h | 10.3 ± 0.33 h | 11.9 ± 0.2 h | 3.31 ± 0.22 h | 3.72 ± 0.042 h | 3.46 ± 0.06 h | 3.472 ± 0.017 h | 5.36 ± 0.15 h | 5.67 ± 0.26 h
MAQIFNFSSGPAMLPAEVLKQAQQELRDWNGLGTSVMEVSHRGKEFIQVAEEAEKDFRDLLNVPSNYKVLFCHGGGRGQFAAVPLNILGDKTTADYVDAGYWAASAIKEAKKYCTPNVFDAKVTVDGLRAVKPMREWQLSDNAAYMHYCPNETIDGIAIDETPDFGADVVVAADFSSTILSRPIDVSRYGVIYAGAQKNIGPAGLTIVIVREDLLGKANIACPSILDYSILNDNGSMFNTPPTFAWYLSGLVFKWLKANGGVAEMDKINQQKAELLYGVIDNSDFYRNDVAKANRSRMNVPFQLADSALDKLFLEESFAAGLHALKGHRVVGGMRASIYNAMPLEGVKALTDFMVEFERRHG | 5.23 ± 1.6 h | 3.87 ± 0.14 h | 3.13 ± 0.2 h | 5.71 ± 0.44 h | 11.1 ± 2.7 h | 11.8 ± 0.42 h | 3.6976 ± 0.003 h | 4.479 ± 0.022 h | 3.55 ± 0.13 h | 3.83 ± 0.23 h | 5.898 ± 0.048 h | 5.74 ± 0.69 h
